Experimental data from patent publication US10301596B2, “Method of repairing damaged chondrocytes via low-dose irradiation” (KOREA INSTITUTE OF RADIOLOGICAL & MEDICAL SCIENCES, priority 2013, dated 2019).

Tested on: chondrocytes
Test: Levels of differentiation- and inflammation-related proteins (type II collagen, Sox-9, I-κB, COX-2), Western blot in chondrocytes
Assay type: cell-based
Settings: 10 ng/mL EGF, 10 nM PMA or 1 μM RA
Experimental: First, the chondrocytes derived from joints were cultured in a DMEM medium according to a known method (E. H. Hong, et al., J. Biol. Chem. 285:1283-1295, 2010). Then, the cultured chondrocytes were inoculated into culture dishes at a density of 5×10^4 cells/cm^2, which were irradiated with 0 cGy, 0.5 cGy, 1.0 cGy, 1.5 cGy, and 2.0 cGy LDR using a ^137Cs-ray source (KIRMS, Korea), and the levels of type II collagen or Sox-9 protein, which are cartilage-specific differentiation marker proteins, and I-κB or COX-2 protein, which are inflammation-related proteins, were determined via Western blot analysis, and the transcriptional activity of Sox-9 protein and NF-κB, which is affected by I-κB, were determined by reporter gene assay (FIGS. 1a and b). […]
Finally, chondrocytes were transfected with 3 μg of GFP-labeled S83A α-catenin, FLAG-labeled S33A β-catenin, or wild type γ-catenin, reacted with or without treatment with 5 μM or 10 μM BAY 11-7082 for 24 hours, and the levels of I-κB and COX-2 proteins were determined via Western blot analysis (FIG. 5g). […]

B1: epidermal growth factor (protein, UniProt P01133 23-1207, looked up)
Pro-epidermal growth factor: PQHWSCPEGTLAGNGNSTCVGPAPFLIFSHGNSIFRIDTEGTNYEQLVVDAGVSVIMDFHYNEKRIYWVDLERQLLQRVFLNGSRQERVCNIEKNVSGMAINWINEEVIWSNQQEGIITVTDMKGNNSHILLSALKYPANVAVDPVERFIFWSSEVAGSLYRADLDGVGVKALLETSEKITAVSLDVLDKRLFWIQYNREGSNSLICSCDYDGGSVHISKHPTQHNLFAMSLFGDRIFYSTWKMKTIWIANKHTGKDMVRINLHSSFVPLGELKVVHPLAQPKAEDDTWEPEQKLCKLRKGNCSSTVCGQDLQSHLCMCAEGYALSRDRKYCEDVNECAFWNHGCTLGCKNTPGSYYCTCPVGFVLLPDGKRCHQLVSCPRNVSECSHDCVLTSEGPLCFCPEGSVLERDGKTCSGCSSPDNGGCSQLCVPLSPVSWECDCFPGYDLQLDEKSCAASGPQPFLLFANSQDIRHMHFDGTDYGTLLSQQMGMVYALDHDPVENKIYFAHTALKWIERANMDGSQRERLIEEGVDVPEGLAVDWIGRRFYWTDRGKSLIGRSDLNGKRSKIITKENISQPRGIAVHPMAKRLFWTDTGINPRIESSSLQGLGRLVIASSDLIWPSGITIDFLTDKLYWCDAKQSVIEMANLDGSKRRRLTQNDVGHPFAVAVFEDYVWFSDWAMPSVMRVNKRTGKDRVRLQGSMLKPSSLVVVHPLAKPGADPCLYQNGGCEHICKKRLGTAWCSCREGFMKASDGKTCLALDGHQLLAGGEVDLKNQVTPLDILSKTRVSEDNITESQHMLVAEIMVSDQDDCAPVGCSMYARCISEGEDATCQCLKGFAGDGKLCSDIDECEMGVPVCPPASSKCINTEGGYVCRCSEGYQGDGIHCLDIDECQLGEHSCGENASCTNTEGGYTCMCAGRLSEPGLICPDSTPPPHLREDDHHYSVRNSDSECPLSHDGYCLHDGVCMYIEALDKYACNCVVGYIGERCQYRDLKWWELRHAGHGQQQKVIVVAVCVVVLVMLLLLSLWGAHYYRTQKLLSKNPKNPYEESSRDVRSRRPADTEDGMSSCPQPWFVVIKEHQDLKNGGQPVAGEDGQAADGSMQPTSWRQEPQLCGMGTEQGCWIPVSSDKGSCPQVMERSFHMPSYGTQTLEGGVEKPHSLLSANPLWQQRALDPPHQMELTQ
modifications: Pro-epidermal growth factor
notes: agent known to induce dedifferentiation of chondrocytes
pathological changes induced by soluble factor (type II collagen, Sox-9, COX-2 proteins): inhibition of expression of type II collagen and Sox-9 proteins and induction of COX-2 protein expression
